Laboratory results published in patent US20230250157A1.

Legend:
Test in all cases: ELISA
[1] = biological target: Yun11 RBD
[2] = biological target: BM4831 RBD
[3] = biological target: Rs4081 RBD
[4] = biological target: Pang17 RBD
[5] = biological target: RsSTT200 RBD
[6] = biological target: Rf1 RBD
[7] = biological target: RmYN02 RBD
[8] = biological target: LyRa3 RBD
[9] = biological target: BtKY72 RBD
[10] = biological target: Khosta2 RBD
[11] = biological target: SHC014 RBD
[12] = biological target: RaTG13 RBD

Measured: EC50

C102 IgG
not listed: [12]
> 10 µg/mL: all other assays above

C144 IgG
not listed: [5]
> 10 µg/mL: all other assays above

S309 IgG
> 10 µg/mL: [1] | [3] | [6] | [7] | [9]
